B1: ANKRD9 (parent)
chain: VGAAGSARQELLGDRPRWQRLLGE
B2: BRF1 (parent)
chain: FVESSGGGSSAVGQFVSLDGAGKT

Variants of: B1
Assay: protein stability index of a GFP-peptide fusion (GPS, HEK-293T) (PSI 1-6); higher = more stable
Conditions: c terminus: a fixed tail appended
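Also: lentivirally expressed fusions sorted by FACS into six bins by GFP to DsRed ratio, PSI derived from sequencing read proportions per bin multiplied by bin number.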

Protein stability index of substitutions, site by site:
L21: W 3.23 | C 3.75 | Q 3.32 | R 3.11 | K 4 | S 4.52 | Y 2.28 | V 3.67
L11: T 3.6 | M 3.77 | W 2.61 | P 3.86 | H 2.85 | Q 3.8 | G 3.43 | K 3.69 | F 4.5
W18: P 4.98 | Y 3.78 | N 4.11 | Q 4.1 | K 4.64 | S 4.2 | H 4.14 | V 4.4 | F 3.54
P16: W 1.84 | C 3.24 | D 3.1 | M 2.94 | R 3.31 | V 3.35 | K 3.68 | I 2.92 | G 2.98 | Q 2.65 | H 2.83
E10: W 1.76 | R 2.71 | F 3.33 | D 3.37 | T 2.39 | V 3.25 | S 3.54 | G 2.55 | A 2.85
L22: Y 2.42 | C 3.35 | F 2.93 | Q 3.64 | W 2.96 | I 3.18 | T 3.69 | R 3.67 | P 3.77 | E 3.87
A4: L 3.18 | M 3.1 | F 2.44 | G 1.81 | C 2.09 | V 2.92 | I 2.84 | E 2.91 | K 2.11 | S 3.24
R8: F 2.5 | N 4.03 | V 3.32 | G 3.68 | D 3.53
G23: S 4.39 | Q 3.4 | N 3.12 | T 2.98 | P 3.22 | H 2.61 | C 2.88 | V 2.78 | I 2.88 | E 3.39 | K 3.19
A7: T 3.62 | C 3.44 | R 3.08 | D 3.65 | Q 4.21 | H 3.36
R15: W 3.1 | K 3.06 | S 4.15 | Q 3.96 | D 4.12 | G 3.75 | P 3.11 | F 2.75
A3: G 3.49 | D 3.81 | T 3.14 | F 2.52 | M 2.53 | K 2.86 | W 2.53
V1: F 2.7 | T 3.38 | A 3.58 | G 3.13 | D 4.49
R20: V 2.81 | L 2.72 | N 3.46 | Q 2.68 | K 2.71 | C 2.71 | S 2.87
G2: Q 4.06 | V 2.33 | T 3.06 | C 2.24 | A 3.23 | Y 2.24 | H 2.56 | R 4.84 | S 3.39 | M 2.69 | P 3.11 | L 2.71
E24: G 3.2 | S 2.77 | T 3 | D 3.13 | K 3.7 | F 2.68 | I 2.27 | H 2.96 | M 3.34 | P 2.75
D14: P 3.13 | L 2.36 | V 2.27 | H 3.24 | C 1.39 | Y 2.86
S6: V 2.86 | I 2.27 | T 3.01 | N 3.77 | F 2.85 | C 1.21 | A 2.6 | E 3.88
Q19: E 2.58 | W 2.81 | H 3.14 | C 3.27 | L 2.56 | D 2.83 | N 3.94 | A 2.15
L12: M 3.43 | T 3 | A 3.64 | S 4.15 | F 2.57 | D 4.17 | I 4.09
R17: F 1.94 | T 3.43 | N 3.29 | W 2.61 | M 2.72 | H 4.01 | E 3.81 | A 3.33 | P 4.29
G13: L 2.66 | C 2.77 | S 2.72 | W 1.9 | R 2.81 | M 3.02 | T 2.97 | V 2.63 | Q 2.76 | K 3.39
Q9: E 2.11 | M 3 | H 3.38 | V 3.14 | P 3.29 | D 3.7 | R 3.04 | F 2.81 | A 3.37 | K 3.05
G5: F 2.86 | D 2.48 | R 2.27 | P 3.53 | M 2.37 | C 1.49 | Q 3.09

Variants of: B2
Assay: as above
Conditions: c terminus: a fixed tail appended

Protein stability index: each site, then its substitutions
S17: Y 2.45 | V 1.99 | T 2.29 | W 2.87
D19: S 1.59 | P 2.26 | A 1.72 | W 3.02 | E 2.56 | N 2.02 | Q 1.98 | T 1.59 | K 2.55 | G 1.69 | V 1.12 | H 2.27 | F 1.48 | C 1.72 | M 2.17
A21: M 2.32 | P 1.95 | W 1.73 | N 2.56 | V 1.92 | C 1.81 | I 1.96 | Q 2.03 | T 2.54 | S 2.15 | R 2.66 | Y 1.91 | E 3.23 | H 2.13 | D 3.36 | G 2.6 | K 2.43 | F 1.33 | L 1.8
L18: K 2.3 | R 2 | C 2.5 | E 3.8 | G 2.15 | W 1.58 | Y 1.85 | D 2.58 | I 2.69 | T 2.04 | A 2.5 | S 2.66 | P 2.12 | Q 2.88 | N 3.25 | M 2.55 | F 1.83 | H 3.25 | V 2.95
G22: E 3.08 | V 2.29 | Q 2.26 | Y 1.9 | P 3.13 | D 3.15 | F 2.35 | I 2.62 | S 2.47 | N 2.39 | C 1.79 | H 2.65 | R 1.87 | L 1.6 | A 3 | W 1.84 | T 2.09 | K 1.73
G20: S 1.75 | I 2.16 | L 2.58 | T 2.21 | V 2.41 | C 2.41 | N 2.32 | Y 1.6 | D 2.43 | P 2.13 | E 2.55 | K 1.72 | A 2.41 | H 2.55 | M 1.76 | F 2.6 | Q 3.03 | R 2.32 | W 2.34
T24: Y 1.85 | M 2 | D 2.72 | C 2.27 | E 2.3 | H 1.79 | G 2.26 | F 1.62 | Q 2.86 | A 2.98 | S 2.19 | K 2.44 | V 2.33 | N 2.15 | L 2.02 | W 2.24 | P 2.48 | I 2.59 | R 3.12
K23: P 2.73 | S 2 | E 2.56 | C 2.23 | A 2.04 | G 2.38 | D 2.68 | M 2.16 | V 2.12 | L 2.21 | N 2.19 | F 1.59 | Q 2.01 | I 2.02 | T 2.55 | W 2.28 | H 2.24 | Y 2.05 | R 2.21

From the supplement of paper PMC10567573
